Like-named read-outs stand apart in the source and are kept apart here.
Tests used:
[1] = biological target: His-tagged hCGN Rod2 (667–1203), purified (human) (UniProt Q9P2M7); assay: MST; labelled target His-tagged hCGN Rod2 (red tris-NTA dye, 200 nM); ligands hNM2A rod or hNM2B rod 0–10,000 nM; PBS with 0.05% Tween 20; Monolith NT.115 fit; n = 7
[2] = biological target: T1, His-tagged mZU5 (1520–1745) (mouse, UniProt P39447 1520-1745); assay: MST; labelled target His-tagged mZU5 (1520–1745; red tris-NTA dye, 50 nM); GST-mCGN (1–112) or GST-mCGNL1 (1–122) 0–1,000 nM in PBS-T; Monolith NT.115 fit; n = 5
T1 construct: mouse ZO-1, residues 1520-1745 (ZU5-containing region); Labelled with the red tris-NTA dye through its His tag in the MST; also called ZU5-containing region of mZO-1 (residues 1520–1745); ZU5-containing fragment
T1 sequence (looked up): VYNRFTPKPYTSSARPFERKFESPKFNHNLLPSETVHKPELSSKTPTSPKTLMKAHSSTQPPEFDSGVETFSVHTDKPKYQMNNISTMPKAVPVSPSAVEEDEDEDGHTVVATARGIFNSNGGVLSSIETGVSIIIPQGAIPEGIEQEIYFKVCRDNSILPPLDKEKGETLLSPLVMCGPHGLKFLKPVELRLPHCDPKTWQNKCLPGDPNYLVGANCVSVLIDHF

[3] = biological target: T2, full-length hCGNL1 (10xHis-2xStrep), purified (human, UniProt Q0VF96 1-1302); assay: pull-down; affinity purified GST-tagged cNM2A, cNM2B, cNM2C rod fragments as baits; His-tagged full-length CGN and CGNL1 purified from baculovirus-infected insect cells as preys; IB with anti-His (Fig. 1 H–J); settings: both partners purified
T2 construct: human paracingulin (CGNL1), 1–1,302aa, in pACEBac1; the plasmid list prints this construct as 'hCGN-FL-10xHis-2xStrep (1–1,302aa; S2518)'; also called His-tagged full-length CGNL1; purified CGNL1; source: baculovirus-infected insect cells, purified (StrepTag resin)
T2 sequence (looked up): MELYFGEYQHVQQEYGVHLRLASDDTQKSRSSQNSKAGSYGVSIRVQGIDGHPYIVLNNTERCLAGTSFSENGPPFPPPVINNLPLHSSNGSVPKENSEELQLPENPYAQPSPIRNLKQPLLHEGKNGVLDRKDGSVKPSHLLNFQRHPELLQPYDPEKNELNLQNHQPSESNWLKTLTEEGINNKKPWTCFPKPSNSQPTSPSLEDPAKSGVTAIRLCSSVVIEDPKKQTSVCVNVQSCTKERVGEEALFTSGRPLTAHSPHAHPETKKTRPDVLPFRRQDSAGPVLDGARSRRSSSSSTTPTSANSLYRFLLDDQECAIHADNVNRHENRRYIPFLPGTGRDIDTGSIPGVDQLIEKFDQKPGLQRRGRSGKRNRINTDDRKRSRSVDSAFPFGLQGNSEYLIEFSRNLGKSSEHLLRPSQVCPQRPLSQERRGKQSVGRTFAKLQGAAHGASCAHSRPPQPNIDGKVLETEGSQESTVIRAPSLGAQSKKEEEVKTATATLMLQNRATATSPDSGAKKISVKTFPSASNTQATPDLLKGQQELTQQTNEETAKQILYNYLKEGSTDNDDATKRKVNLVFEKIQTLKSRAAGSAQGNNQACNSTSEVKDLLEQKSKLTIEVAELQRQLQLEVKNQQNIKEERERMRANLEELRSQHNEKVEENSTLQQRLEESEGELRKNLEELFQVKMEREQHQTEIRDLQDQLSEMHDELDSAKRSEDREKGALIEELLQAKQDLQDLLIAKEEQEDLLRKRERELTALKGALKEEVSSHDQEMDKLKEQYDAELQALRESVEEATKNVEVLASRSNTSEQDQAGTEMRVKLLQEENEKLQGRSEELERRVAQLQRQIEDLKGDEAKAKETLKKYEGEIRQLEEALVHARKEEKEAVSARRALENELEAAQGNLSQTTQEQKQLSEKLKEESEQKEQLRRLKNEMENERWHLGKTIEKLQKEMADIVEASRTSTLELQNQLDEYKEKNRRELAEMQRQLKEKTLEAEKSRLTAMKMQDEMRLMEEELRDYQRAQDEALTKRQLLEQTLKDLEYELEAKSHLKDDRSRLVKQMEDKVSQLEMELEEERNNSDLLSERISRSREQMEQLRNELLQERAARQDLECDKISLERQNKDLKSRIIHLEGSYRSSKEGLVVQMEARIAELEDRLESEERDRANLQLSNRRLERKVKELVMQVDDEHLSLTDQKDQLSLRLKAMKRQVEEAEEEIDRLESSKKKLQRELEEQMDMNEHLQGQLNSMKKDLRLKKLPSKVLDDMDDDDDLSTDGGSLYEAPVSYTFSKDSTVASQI

CGNL1 = biological target: T3, CGNL1 (Mus musculus (Mouse), UniProt Q6AW69); assay: MST, GST-fusion ligands (GST dimer)
T3 chain: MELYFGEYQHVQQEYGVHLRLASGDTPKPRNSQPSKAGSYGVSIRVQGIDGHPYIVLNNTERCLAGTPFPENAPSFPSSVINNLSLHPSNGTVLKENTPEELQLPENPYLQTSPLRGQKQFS

CGN = biological target: T4, CGN (Mus musculus (Mouse), UniProt P59242); assay: MST, GST-fusion ligands (GST dimer)
T4 chain: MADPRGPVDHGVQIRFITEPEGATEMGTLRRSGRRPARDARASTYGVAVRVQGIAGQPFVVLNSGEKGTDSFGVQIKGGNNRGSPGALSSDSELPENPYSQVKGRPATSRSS

His-tagged hCGN Rod2 (667–1203), purified (human), sequence (Q9P2M7 667-1203): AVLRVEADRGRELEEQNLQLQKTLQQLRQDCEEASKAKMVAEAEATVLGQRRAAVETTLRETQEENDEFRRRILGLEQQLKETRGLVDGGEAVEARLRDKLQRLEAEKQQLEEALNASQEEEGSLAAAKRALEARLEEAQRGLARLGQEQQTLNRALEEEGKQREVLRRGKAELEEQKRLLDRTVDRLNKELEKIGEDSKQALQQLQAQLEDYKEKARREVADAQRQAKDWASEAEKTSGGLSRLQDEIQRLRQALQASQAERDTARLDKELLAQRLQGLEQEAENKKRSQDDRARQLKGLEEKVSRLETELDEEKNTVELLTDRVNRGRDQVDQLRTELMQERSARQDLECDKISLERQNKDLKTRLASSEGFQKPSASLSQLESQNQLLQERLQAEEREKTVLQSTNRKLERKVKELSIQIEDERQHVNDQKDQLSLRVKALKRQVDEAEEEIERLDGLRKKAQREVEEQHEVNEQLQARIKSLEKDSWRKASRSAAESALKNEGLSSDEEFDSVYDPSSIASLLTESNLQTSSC

Which Kd [1] does the source give for “hNM2A rod (1330–1960), purified (from UniProt P35579 1330-1960) (domain or fragment)” here?
Its Kd is 3620 nM.

How did the Kd [2] turn out when “GST-mCGN (1–112) (from UniProt P59242 1-112) (domain or fragment)” was run?
Its Kd is 7.7 nM.

With “hNM2B rod (1337–1976), purified (from UniProt P35580 1337-1976) (domain or fragment)” as the molecule, how does the Kd [1] read?
Its Kd is 346 nM.

B1: GST-cNM2A (1711–1960) (domain or fragment, canis (dog), UniProt Q258K2 1711-1960, looked up)
chain: ANSSGKGALALEEKRRLEARIAQLEEELEEEQGNTELVNDRLKKANLQIDQINTDLNLERSHAQKNENARQQLERQNKELKVKLQEMEGTVKSKYKASITALEAKIAQLEEQLDNETKERQAACKQVRRAEKKLKDVLLQVDDERRNAEQFKDQADKASTRLKQLKRQLEEAEEEAQRANASRRKLQRELEDATETADAMNREVSSLKNKLRRGDLPFVVPRRVARKGAGDCSDEEVDGKADGAEAKAAE
notes: canis nonmuscle myosin-2A heavy chain, rod and tail fragment 1711-1960; also called last 250 residues of NM2A; not shown: GST, N-terminal, kept
Does B1 bind [3]?
Result: binds

B2: ZO1 (protein)
chain: EDEDEDGHTVVATARGIFNSNGGVLSSIETGVSIIIPQGAIPEGIEQEIYFKVCRDNSILPPLDKEKGETLLSPLVMCGPHGLKFLKPVELRLPHCDPKTWQNKCLPGDPNYLVGANCVSVLIDHF
For B2, which Kd (CGNL1) is on record?
The Kd was 79.8 nM.

And the Kd (CGN)?
Its Kd is 7.7 nM.

B3: GST-mCGNL1 (1–122) (domain or fragment)
chain: T3 chain
For B3, which Kd ([2]; both partners purified) is on record?
The Kd was 79.8 nM.

B4: GST-cNM2A (1461–1960) (domain or fragment, canis (dog), UniProt Q258K2 1461-1960, looked up)
chain: AEERDRAEAEAREKETKALSLARALEEAMEQKAELERLNKQFRTEMEDLMSSKDDVGKSVHELEKSKRALEQQVEEMKTQLEELEDELQATEDAKLRLEVNLQAMKAQFERDLQGRDEQSEEKKKQLVRQVREMEAELEDEKKQRSMAVAARKKLEMDLKDLEAHIDSANKNRDEAIKQLRKLQAQMKDCVRELDDTRASREEILAQAKENEKKMKSMEAEMIQLQEELAAAERAKRQAQQERDELADEIANSSGKGALALEEKRRLEARIAQLEEELEEEQGNTELVNDRLKKANLQIDQINTDLNLERSHAQKNENARQQLERQNKELKVKLQEMEGTVKSKYKASITALEAKIAQLEEQLDNETKERQAACKQVRRAEKKLKDVLLQVDDERRNAEQFKDQADKASTRLKQLKRQLEEAEEEAQRANASRRKLQRELEDATETADAMNREVSSLKNKLRRGDLPFVVPRRVARKGAGDCSDEEVDGKADGAEAKAAE
notes: canis nonmuscle myosin-2A heavy chain, rod fragment 1461-1960; also called NM2A rod bait, last ≈500 residues; not shown: GST, N-terminal, kept
Does B4 bind [3]?
Result: binds

Reference: PMC10202830, “Cingulin and paracingulin tether myosins-2 to junctions to mechanoregulate the plasma membrane” (The Journal of Cell Biology, 2023)
